{"source": "patent US12202861B2", "about": "“Inducible, tunable, and multiplex human gene regulation using CRISPR-Cpf1” (The General Hospital Corporation, priority 2017, dated 2025)", "molecules": {"B1": {"name": "multiplex crRNAs: three LbCpf1 crRNAs (HBB, AR, NPY1R) encoded on a single U6-driven transcript (SEQ ID NO: 58) (nucleic acid)", "guide": "GAGGGCCTATTTCCCATGATTCCTTCATATTTGCATATACGATACAAGGCTGTTAGAGAGATAATTAGAATTAATTTGACTGTAAACACAAAGATATTAGTACAAAATACGTGACGTAGAAAGTAATAATTTCTTGGGTAGTTTGCAGTTTTAAAATTATGTTTTAAAATGGACTATCATATGCTTACCGTAACTTGAAAGTATTTCGATTTCTTGGCTTTATATATCTTGTGGAAAGGACGAAACACCGAATTTCTACTAAGTGTAGATTACTGATGGTATGGGGCCAAAATTTCTACTAAGTGTAGATCTCTAGGAACCCTCAGCCCCAATTTCTACTAAGTGTAGATAAGCCTCGGGAAACTGCCCTAATTTCTACTAAGTGTAGATTTTTTTT", "modifications": "misc_feature 1..397 crRNAs from Figure 2b"}}, "tested_on": "HBB, AR, and NPY1R", "test": "Simultaneous (multiplex) activation of three endogenous genes in HEK293 cells, RT-qPCR", "assay_type": "cell-based, human", "conditions": "multiplex transcript vs single crRNA, HEK293, across the dLbCpf1-based activators", "source_text": "(A) Schematic of an expression cassette designed to express multiple gRNAs encoded on a single transcript. The arrows indicate cleavage sites being processed by the RNase activity of dLbCpf1. (B) Schematic illustrating multiplex expression of three crRNAs each targeted to a different endogenous gene promoter in a single cell. (C) Simultaneous activation of three endogenous human genes using crRNAs expressed from a multiplex transcript or from individual transcripts with dLbCpf1-VPR direct fusions (left panel), dLbCpf1-DmrA(×4) and DmrC-VPR fusions (middle panel), and dLbCpf1-DmrA(×4) and DmrC-p65 fusions (right panel). Transcripts were measured in HEK293 cells using RT-qPCR with relative mRNA expression calculated by comparison to the control sample in which no crRNA is expressed. […] RNA expression was measured by RT-qPCR and relative expression shown was calculated by comparison to a control sample in which no crRNA is expressed. […] Transcripts were measured in HEK293 cells using RT-qPCR with relative mRNA expression calculated by comparison to the control sample in which no crRNA is expressed. […] Transcripts were measured in HEK293 cells using RT-qPCR with relative mRNA expression calculated by comparison to the control sample in which no crRNA is expressed. […] Cells were collected at various time points and relative mRNA expression levels were measured by RT-qPCR compared to a negative control. […]"}
{"molecule": "B1", "values": [{"measurement": "magnitude of activation somewhat lower than with expression of a single crRNA", "result": "18 to 55", "unit": "%"}]}
